In the Immune Epitope Database (IEDB):
Each block holds one sequence with its values, some of them ahead of it.

Tests used:
HLA-C*14:02 [1] = assay: IEDB peptide-MHC binding, purified MHC/direct/fluorescence; filed as Kd, often an IC50 or EC50 that approximates it; ≥ and ≤ were set here for values at or beyond the usual limits of such assays
HLA-A*02:01 [2] = assay: IEDB peptide-MHC binding, purified MHC/competitive/radioactivity; ≥ and ≤ were set here for values at or beyond the usual limits of such assays
HLA-A*02:01 [3] = assay: IEDB peptide-MHC binding, purified MHC/competitive/radioactivity; filed as Kd, often an IC50 or EC50 that approximates it; ≥ and ≤ were set here for values at or beyond the usual limits of such assays; details: source organism: Homo sapiens
HLA-B*15:17 = assay: IEDB peptide-MHC binding, purified MHC/competitive/fluorescence; filed as Kd, often an IC50 or EC50 that approximates it; ≥ and ≤ were set here for values at or beyond the usual limits of such assays
HLA-C*14:02 [4] = assay: as above; details: source organism: Rattus norvegicus
HLA-B*45:06 = assay: as above; details: source organism: Rattus norvegicus
HLA-B*27:03 = assay: as above; details: source organism: Rattus norvegicus
HLA-B*83:01 = assay: as above; details: source organism: Rattus norvegicus
HLA-B*15:42 = assay: as above; details: source organism: Rattus norvegicus
HLA-B*07:02 [5] = assay: IEDB peptide-MHC binding, purified MHC/direct/fluorescence; filed as Kd, often an IC50 or EC50 that approximates it; ≥ and ≤ were set here for values at or beyond the usual limits of such assays
HLA-C*03:03 = assay: as above; details: source organism: Rattus norvegicus
HLA-C*12:03 = assay: as above; details: source organism: Rattus norvegicus
HLA-B*07:02 [6] = assay: IEDB peptide-MHC binding, purified MHC/competitive/fluorescence; ≥ and ≤ were set here for values at or beyond the usual limits of such assays
HLA-B*08:01 [7] = assay: as above; details: source organism: Zaire ebolavirus
HLA-B*15:01 [8] = assay: as above
HLA-A*02:01 [9] = assay: as above
HLA-A*26:02 = assay: IEDB peptide-MHC binding, purified MHC/direct/fluorescence; filed as Kd, often an IC50 or EC50 that approximates it; ≥ and ≤ were set here for values at or beyond the usual limits of such assays
HLA-A*26:01 [10] = assay: as above; details: source organism: Giardia lamblia ATCC 50803
HLA-A*31:01 [11] = assay: IEDB peptide-MHC binding, purified MHC/competitive/fluorescence; filed as Kd, often an IC50 or EC50 that approximates it; ≥ and ≤ were set here for values at or beyond the usual limits of such assays; details: source organism: Dengue virus 2 Thailand/NGS-C/1944
HLA-A*11:01 [12] = assay: as above
HLA-A*03:01 [13] = assay: IEDB peptide-MHC binding, purified MHC/competitive/fluorescence; ≥ and ≤ were set here for values at or beyond the usual limits of such assays; details: source organism: Variola virus
HLA-A*11:01 [14] = assay: as above; details: source organism: Variola virus
HLA-A*24:02 = assay: as above; details: source organism: Variola virus
HLA-B*15:01 [15] = assay: IEDB peptide-MHC binding, purified MHC/competitive/radioactivity; filed as Kd, often an IC50 or EC50 that approximates it; ≥ and ≤ were set here for values at or beyond the usual limits of such assays; details: source organism: Dengue virus 1 Brazil/97-11/1997
HLA-A*30:02 = assay: as above; details: source organism: Dengue virus 1 Brazil/97-11/1997
HLA-B*27:05 = assay: IEDB peptide-MHC binding, purified MHC/direct/fluorescence; filed as Kd, often an IC50 or EC50 that approximates it; ≥ and ≤ were set here for values at or beyond the usual limits of such assays; details: source organism: Influenza A virus (A/Hong Kong/514/97(H5N1))
HLA-B*58:01 = assay: as above; details: source organism: Influenza A virus (A/Hong Kong/514/97(H5N1))
HLA-A*03:01 [16] = assay: as above; details: source organism: Influenza A virus (A/Hong Kong/514/97(H5N1))
HLA-B*57:01 = assay: as above; details: source organism: Influenza A virus (A/Hong Kong/514/97(H5N1))
HLA-B*40:01 = assay: as above; details: source organism: Influenza A virus (A/Hong Kong/514/97(H5N1))
HLA-B*15:01 [17] = assay: as above; details: source organism: Influenza A virus (A/Hong Kong/514/97(H5N1))
HLA-A*31:01 [18] = assay: as above; details: source organism: Influenza A virus (A/Hong Kong/514/97(H5N1))
HLA-A*69:01 = assay: as above; details: source organism: Influenza A virus (A/Hong Kong/514/97(H5N1))
HLA-A*02:01 [19] = assay: as above; details: source organism: Influenza A virus (A/Hong Kong/514/97(H5N1))
HLA-B*48:01 = assay: as above; details: source organism: Influenza A virus (A/Hong Kong/514/97(H5N1))
HLA-C*08:02 = assay: as above; details: source organism: Influenza A virus (A/Hong Kong/1074/1999(H9N2))
HLA-B*46:01 = assay: as above
HLA-B*08:01 [20] = assay: as above; details: source organism: Influenza A virus H3N2
HLA-C*15:02 = assay: as above; details: source organism: dengue virus type 1
HLA-B*15:02 = assay: as above; details: source organism: dengue virus type 4
HLA-A*26:01 [21] = assay: IEDB peptide-MHC binding, purified MHC/competitive/radioactivity; filed as Kd, often an IC50 or EC50 that approximates it; ≥ and ≤ were set here for values at or beyond the usual limits of such assays; details: source organism: Dengue virus 1 Brazil/97-11/1997
HLA-A*01:01 = assay: IEDB peptide-MHC binding, purified MHC/competitive/fluorescence; filed as Kd, often an IC50 or EC50 that approximates it; ≥ and ≤ were set here for values at or beyond the usual limits of such assays; details: source organism: Escherichia coli F11
HLA-A*24:03 = assay: as above; details: source organism: Escherichia coli F11
HLA-B*15:01 [22] = assay: as above; details: source organism: Escherichia coli F11
HLA-A*26:01 [23] = assay: as above; details: source organism: Escherichia coli F11
HLA-C*07:02 = assay: IEDB peptide-MHC binding, purified MHC/direct/fluorescence; filed as Kd, often an IC50 or EC50 that approximates it; ≥ and ≤ were set here for values at or beyond the usual limits of such assays; details: source organism: Escherichia coli F11
HLA-C*06:02 = assay: as above; details: source organism: Escherichia coli F11
[24] = source organism: Zaire ebolavirus
[25] = source organism: Influenza A virus (A/Hong Kong/1074/1999(H9N2))
[26] = source organism: Influenza A virus (A/Hong Kong/514/97(H5N1))

Sequence: AARIAGRHM
Kd (HLA-C*14:02 [1]; source organism: Mycobacterium tuberculosis variant bovis BCG str. Pasteur 1173P2): 654 nM

IC50 (HLA-A*02:01 [2]; source organism: Homo sapiens): ≥ 20000 nM
Kd (HLA-A*02:01 [3]): 2710 nM
Sequence: ARDPHSGHFV

Kd (HLA-B*15:17; source organism: Rattus norvegicus): ≥ 20000 nM
Kd (HLA-C*14:02 [4]): 12.9 nM
Kd (HLA-B*45:06): ≥ 5 µM
Kd (HLA-B*27:03): ≥ 20 µM
Kd (HLA-B*83:01): ≥ 5 µM
Kd (HLA-B*15:42): ≥ 5 µM
Kd (HLA-B*07:02 [5]; source organism: Mus musculus): 0.9 nM
Kd (HLA-C*03:03): 52 nM
Kd (HLA-C*12:03): 383 nM
Sequence: FLRKNQRAL

Sequence: GGRRTRREA
IC50 (HLA-B*07:02 [6]; [24]): ≥ 120 µM
IC50 (HLA-B*08:01 [7]): ≥ 223 µM

Sequence: GLMHNQDGL
IC50 (HLA-B*07:02 [6]; [24]): ≥ 81.9 µM
IC50 (HLA-B*15:01 [8]; [24]): 51.6 µM
IC50 (HLA-A*02:01 [9]; [24]): 1.58 µM

Sequence: ITSGHSWAY
Kd (HLA-A*26:02; source organism: Giardia lamblia ATCC 50803): 34 nM
Kd (HLA-A*26:01 [10]): 28 nM

Sequence: KTFVDLMRR
Kd (HLA-A*31:01 [11]): 1.02 nM
Kd (HLA-A*11:01 [12]; source organism: Dengue virus 2 Thailand/NGS-C/1944): 12.3 nM

Sequence: KVFLPNPAF
IC50 (HLA-B*07:02 [6]; source organism: Variola virus): ≥ 143 µM
IC50 (HLA-A*03:01 [13]): 64.8 µM
IC50 (HLA-B*15:01 [8]; source organism: Variola virus): 21 µM
IC50 (HLA-A*02:01 [9]; source organism: Variola virus): 55.1 µM
IC50 (HLA-A*11:01 [14]): 40.5 µM
IC50 (HLA-A*24:02): 9.77 µM

Sequence: NLYVSLLLL
IC50 (HLA-A*02:01 [2]; source organism: Hepatitis B virus subtype ayw): 77 nM

Sequence: QMVSSVTFI
IC50 (HLA-A*02:01 [2]; source organism: Rhinovirus A): 200 nM

Sequence: RPVILSLPR
IC50 (HLA-B*07:02 [6]; source organism: Variola virus): 15 µM
IC50 (HLA-A*02:01 [9]; source organism: Variola virus): ≥ 187 µM
IC50 (HLA-A*11:01 [14]): ≥ 122 µM

IC50 (HLA-A*02:01 [2]; source organism: Homo sapiens): 79.4 nM
Sequence: SLADTNSLAV

Sequence: SVKKDLISY
Kd (HLA-A*26:02; source organism: dengue virus type 3): 2 nM
Kd (HLA-B*15:01 [15]): 5.96 nM
Kd (HLA-A*30:02): 26.1 nM

Sequence: VSDGGPNLY
Kd (HLA-B*15:17; [25]): 192 nM
Kd (HLA-A*11:01 [12]; [25]): ≥ 20000 nM
Kd (HLA-B*27:05): ≥ 20 µM
Kd (HLA-B*07:02 [5]; [26]): ≥ 20000 nM
Kd (HLA-B*58:01): 553 nM
Kd (HLA-A*03:01 [16]): ≥ 20 µM
Kd (HLA-B*57:01): 16.7 µM
Kd (HLA-B*40:01): ≥ 20 µM
Kd (HLA-B*15:01 [17]): 2990 nM
Kd (HLA-A*31:01 [18]): ≥ 20 µM
Kd (HLA-A*69:01): ≥ 20 µM
Kd (HLA-A*02:01 [19]): ≥ 20 µM
Kd (HLA-B*48:01): ≥ 20 µM
Kd (HLA-C*08:02): 86 nM
Kd (HLA-B*46:01; [26]): ≥ 20000 nM
Kd (HLA-B*08:01 [20]): ≥ 20 µM

Sequence: YLAGAGLAF
Kd (HLA-C*15:02): ≥ 20 µM
Kd (HLA-C*14:02 [1]; source organism: dengue virus type 1): 46 nM
Kd (HLA-B*15:02): 3 nM
Kd (HLA-B*46:01; source organism: Dengue virus 1 Singapore/S275/1990): 118 nM
Kd (HLA-A*26:01 [21]): 401 nM

Kd (HLA-A*01:01): ≥ 20 µM
Kd (HLA-A*24:03): 15.1 nM
Kd (HLA-B*15:01 [22]): 59.4 nM
Kd (HLA-A*26:01 [23]): 92.7 nM
Kd (HLA-C*07:02): 991 nM
Kd (HLA-C*06:02): ≥ 20 µM
Sequence: YTLNNGGAF
